Laboratory results as given in IntAct's records for PubMed 25946333.

B1: Nuclear envelope integral membrane protein 1 (Mus musculus), Q6ZQE4 (parent)
chain: MAGGIKVSVWSAVGPGPRCWGAGGGGGATWLLLVVAGCVVCGSADVNVVMLQESQVDMNSSQQFCYKNVLIPKWHDIWTRIQVRVNSSKLVRVTQVDNEEKLKELEQFSIWNFFSSFLKEKLNDTYVNVGLYSTKTCLKVEMIEKDTTYSVTVTRRFDPKLFLVFLLGLTLFFCGDLLSRSQIFYYSTGMSVGIVASLLIVIFMISKFMPKRSPIYVILVGGWSFSLYLIQLVFKNLQEIWRSYWHYLLSYILTVGFMSFAVCYKYGPLENERSINLLTWTLQLLGLGLMYSSIQIPHVAFALIVIALCTKNLEYPIHWLCSTYRRMCKASGKPVPPRLLTEEEYRIQGEVETQKALQELREFCNSPECSAWKTISRIQSPKRFADFVEGSFHLTPNEVSVHEQEYGLGSIFTQDEELSSEEEGSEYPTFTQNNFLT

Variants of: B1
Details: with ran_mouse Ran
For S366A;S376A;S380A;S419A;S420A, the “effect of a mutation on the interaction” value was “disrupting interaction strength”.
S366E;S376E;S380E;S419E;S420E was tested, and the “effect of a mutation on the interaction” value was “disrupting interaction strength”.
